The results in this text go back to article PMC7849165 (The EMBO Journal, 2020).

This assay concerns the target T1, N-terminal cytosolic domain of Sec62 (Sec62 domain; residues 18-145) (S. cerevisiae, UniProt P21825 18-145).
T1 sequence (looked up): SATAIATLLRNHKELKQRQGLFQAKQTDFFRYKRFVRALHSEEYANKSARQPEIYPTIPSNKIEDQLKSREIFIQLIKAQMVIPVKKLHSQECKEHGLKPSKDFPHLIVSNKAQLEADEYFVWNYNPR
In words: pull-down.

No end group written: not given here.

B1: Sec63-C1 peptide (residues 621-647 of Sec63), biotin-labeled (peptide, UniProt P14906 621-647, looked up)
peptide: VYSEEDDEYSTDDDETESDDESDASDY
modifications: also: biotin label, position not given here
Regarding B1, the binding result is “binds”.
